Holding throughout (assay): filter
For series [1], the target named is SARS-CoV-2 spike S1 (Wuhan), His-tagged (SARS-CoV-2) (UniProt P0DTC2).
Series [2] deals with SARS-CoV-2 spike receptor binding domain (Wuhan) (SARS-CoV-2) (UniProt P0DTC2).
Series [3] deals with SARS-CoV-1 spike S1 (SARS-CoV-1) (UniProt P59594).
The target in series [4] is SARS-CoV-2 spike S1 (Wuhan), untagged (SARS-CoV-2) (UniProt P0DTC2).
The mark [5] stands for this setting: first 20 nt DNA, rest FANA (SEQ ID NO 1).
The mark [6] stands for this setting: first 20 nt DNA, rest FANA (T in random region is faU).
[7] abbreviates: first 20 nt DNA, rest FANA (SEQ ID NO 17).
Setting [8] is: first 20 nt DNA, rest FANA (SEQ ID NO 3).

Where “and” joins values, the source holds several entries; their conditions need not be identical. Identical values can stand only once. Like-named read-outs stand apart in the source and are kept apart here.

For “AAAAGGTAGTGCTGAATTCGUCGAACUAAACCGAAUUGAUGGCAUAAAAAGCAUGUUUAGUUCGCUAUCCAGUUGGCCU [FANA-R8-5]”, the values for the dissociation constant Kd in series [1] (setting [5]) and in series [2] (setting [5]) were 0.0166 µM and 0.0264 µM, respectively.

Take “AAAAGGTAGTGCTGAATTCGATTCTCGATTGATGGCATAAAAAGCATAGAATCGCAAGCAUUCGCUAUCCAGUUGGCCU [FANA-R8-7]”: the dissociation constant Kd in series [1] (setting [6]) came to 0.0312 µM; in series [2] (setting [6]), 0.0628 µM.

Consider “AAAAGGTAGTGCTGAATTCGGGAGCTCGAACAGATGGGATAAAAAGCATAGCTCACCAATUUCGCUAUCCAGUUGGCCU [FANA-R8-15]”, for which the results for the Kd in series [1] (setting [6]) and in series [2] (setting [6]) were 0.0277 µM and 0.0433 µM, respectively.

On to “AAAAGGTAGTGCTGAATTCGGTCGCGATTAACATTAAACCGCATAAAAAGGGTGGCCGGAUUCGCUAUCCAGUUGGCCU [FANA-R8-3]”, for which the results for the Kd in series [1] (setting [6]) and in series [2] (setting [6]) were 0.0464 µM and 0.0681 µM, respectively.

With “AAAAGGTAGTGCTGAATTCGCGAGCCCGCAUGAAAAGGGGAGAUAUGCAAUAUCUGUCGAUUCGCUAUCCAGUUGGCCU [FANA-R8-22]”, the Kd is 0.0133 µM in series [1] (setting [7]) and 0.0213 µM in series [2] (setting [7]).

As to “AAAAGGTAGTGCTGAATTCGUCGAACUAAUCCGAAUUGAUGGCAUAAAAAGCAUGUUUAGUUCGCUAUCCAGUUGGCCU [FANA-R8-17]”, the Kd in series [1] (setting [8]) was found to be 0.0191 µM; in series [2] (setting [8]) it was 0.0295 µM.

“AAAAGGTAGTGCTGAATTCGCGAGCCCGCAUGAAAAGGGGAGAUAAAAAAUAUCUGUCGAUUCGCUAUCCAGUUGGCCU [FANA-R8-9]”: the dissociation constant Kd in series [1] was 0.0147 µM; in series [2] it was 0.0235 µM and 0.0196 µM; in series [3], 0.259 µM; in series [4], 0.0296 µM.

For the sequence “AAAAGGTAGTGCTGAATTCGNNNNNNNNNNNNNNNNNNNNNNNNNNNNNNNNNNNNNNNNUUCGCUAUCCAGUUGGCCU [FANA-ST]”, the Kd in series [2] (first 20 nt DNA, rest 2'-fluoro-arabino (FANA)) came to 1.7 µM.

For the origin of these results see patent US20230313203A1.
